B1: construct 18532 (CD40 X HER2; 12E12, Pertuzumab; Fab x scFv) (bispecific antibody, human IgG1, kappa, L234A L235A)
heavy: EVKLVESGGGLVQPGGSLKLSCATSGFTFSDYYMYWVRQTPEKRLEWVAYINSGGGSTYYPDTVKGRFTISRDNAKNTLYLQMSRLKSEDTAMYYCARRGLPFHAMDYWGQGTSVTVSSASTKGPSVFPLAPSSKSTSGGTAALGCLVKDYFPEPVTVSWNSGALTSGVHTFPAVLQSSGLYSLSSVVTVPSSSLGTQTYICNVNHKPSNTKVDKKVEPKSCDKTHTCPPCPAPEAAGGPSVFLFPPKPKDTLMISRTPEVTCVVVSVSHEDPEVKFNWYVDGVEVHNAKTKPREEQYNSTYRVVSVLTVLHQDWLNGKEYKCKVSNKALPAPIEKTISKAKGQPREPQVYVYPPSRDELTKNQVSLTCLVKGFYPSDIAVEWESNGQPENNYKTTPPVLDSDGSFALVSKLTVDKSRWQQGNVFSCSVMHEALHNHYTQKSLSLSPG
light: DIQMTQTTSSLSASLGDRVTISCSASQGISNYLNWYQQKPDGTVKLLIYYTSILHSGVPSRFSGSGSGTDYSLTIGNLEPEDIATYYCQQFNKLPPTFGGGTKLEIKRTVAAPSVFIFPPSDEQLKSGTASVVCLLNNFYPREAKVQWKVDNALQSGNSQESVTEQDSKDSTYSLSSTLTLSKADYEKHKVYACEVTHQGLSSPVTKSFNRGEC
scFv: DIQMTQSPSSLSASVGDRVTITCKASQDVSIGVAWYQQKPGKAPKLLIYSASYRYTGVPSRFSGSGSGTDFTLTISSLQPEDFATYYCQQYYIYPATFGQGTKVEIKVEGGSGGSGGSGGSGGVDEVQLVESGGGLVQPGGSLRLSCAASGFTFADYTMDWVRQAPGKGLEWVGDVNPNSGGSIYNQRFKGRFTFSVDRSKNTLYLQMNSLRAEDTAVYYCARNLGPSFYFDYWGQGTLVTVSSAAEPKSSDKTHTCPPCPAPEAAGGPSVFLFPPKPKDTLMISRTPEVTCVVVSVSHEDPEVKFNWYVDGVEVHNAKTKPREEQYNSTYRVVSVLTVLHQDWLNGKEYKCKVSNKALPAPIEKTISKAKGQPREPQVYVLPPSRDELTKNQVSLLCLVKGFYPSDIAVEWESNGQPENNYLTWPPVLDSDGSFFLYSKLTVDKSRWQQGNVFSCSVMHEALHNHYTQKSLSLSPG
notes: also called v18532; Her2×CD40
B2: construct 18529 (DEC-205 X HER2; 3G9, Pertuzumab; Fab x scFv) (bispecific antibody, human IgG1, kappa, L234A L235A)
heavy: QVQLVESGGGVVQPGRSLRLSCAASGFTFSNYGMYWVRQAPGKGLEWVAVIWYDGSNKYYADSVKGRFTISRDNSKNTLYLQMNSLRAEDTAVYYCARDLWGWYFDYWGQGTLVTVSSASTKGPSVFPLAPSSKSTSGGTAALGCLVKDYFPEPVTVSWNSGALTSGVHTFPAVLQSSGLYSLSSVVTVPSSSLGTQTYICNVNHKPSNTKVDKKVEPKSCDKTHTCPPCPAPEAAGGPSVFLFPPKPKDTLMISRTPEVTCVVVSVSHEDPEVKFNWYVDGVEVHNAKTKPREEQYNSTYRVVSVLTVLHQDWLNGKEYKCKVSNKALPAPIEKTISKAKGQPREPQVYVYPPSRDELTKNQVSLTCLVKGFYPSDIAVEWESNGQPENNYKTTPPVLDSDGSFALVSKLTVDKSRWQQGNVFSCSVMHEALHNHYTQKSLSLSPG
light: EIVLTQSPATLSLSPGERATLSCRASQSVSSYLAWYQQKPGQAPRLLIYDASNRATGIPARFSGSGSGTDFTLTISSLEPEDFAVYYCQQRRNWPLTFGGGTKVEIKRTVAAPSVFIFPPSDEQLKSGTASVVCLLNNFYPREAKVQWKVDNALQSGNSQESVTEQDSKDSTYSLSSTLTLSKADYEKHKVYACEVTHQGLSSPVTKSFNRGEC
scFv: B1 scFv
notes: Three polypeptides A, B and C; also called Her2×Dec205

Key:
Assay in all cases: homogeneous cell binding assay on transfected HEK293-6e cells as in Example 8 (data not shown)
Human CD40 = target: T1, Human CD40 (human, UniProt P25942 21-277)
T1 construct: whole, on cells
T1 sequence (P25942 21-277): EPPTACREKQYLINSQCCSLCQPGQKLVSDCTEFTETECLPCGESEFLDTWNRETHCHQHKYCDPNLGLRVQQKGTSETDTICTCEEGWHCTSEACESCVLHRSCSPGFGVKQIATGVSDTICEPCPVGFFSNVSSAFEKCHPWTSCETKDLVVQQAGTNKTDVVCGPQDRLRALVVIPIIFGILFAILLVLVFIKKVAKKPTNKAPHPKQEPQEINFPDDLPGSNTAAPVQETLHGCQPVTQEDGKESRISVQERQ
Procedure: (§1) Binding of constructs to target was assessed in HEK293-6e cells transiently expressing the target of interest.
(§2) Parental cells were maintained in 250 mL Erlenmeyer flasks (Corning, 431144) at 37° C., 5% CO2 in a rotating humidified incubator at 115 rpm. HEK293-6e cells were re-suspended to 1×10⁶ cells/mL in fresh Freestyle media before transfection. […] The DNA vectors that were used to express targets of interest were pTT5 vectors with full length targets of interest including Human Dectin-1, Human DEC205, Human CD40, Human HER2, Human ROR1 and mock vector containing GFP. The cells were incubated for 24 hours at 37° C. and 5% CO2 in a rotating humidified incubator at 115 rpm.
(§3) Construct samples were prepared at starting concentrations of 40 nM final in FACS buffer or 1×PBS pH 7.4 (Gibco, 1001023)+2% FBS in Eppendorf tubes. Samples were titrated in duplicate 1:4 down to 0.04 nM directly in the 384-well black optical bottom assay plate (Thermo Fisher, 142761). HEK293-6e cells expressing target of interest were harvested and re-suspended in FACS buffer at 10,000 cells per 30 μl. To visualize cell nuclei as a focusing channel, Vybrant™ DyeCycle™ Violet nuclear stain (Life Tech, V35003) was added to cells at 2 μM final concentration. To detect binding of test construct sample to cells, Goat anti-Human IgG Fc A647 (Jackson ImmunoResearch, 115-605-071) was added to cells at 0.6 μg/mL final. The cells were vortexed briefly to mix and plated at 10,000 cells/well. The plate was incubated at room temperature for 3 hours before scanning. Data analysis was performed on the CellInsight™ with the HCS high content screening platform (Thermo Scientific), using BioApplication “CellViability” with a 10× objective. Samples were scanned on the 385 nm channel to visualize nuclear staining and channel 650 nm to assess cell binding. The mean object average fluorescence intensity of A647 was measured on channel 2 to determine binding intensity on all cell conditions.

Human HER2 = target: T2, Human HER2 (human, UniProt P04626 23-1255)
T2 construct: whole, on cells
Procedure: as §1, §2, §3

Human DEC205 = target: T3, Human DEC205 (human, UniProt O60449 28-1722)
T3 construct: whole, on cells
T3 sequence (O60449 28-1722): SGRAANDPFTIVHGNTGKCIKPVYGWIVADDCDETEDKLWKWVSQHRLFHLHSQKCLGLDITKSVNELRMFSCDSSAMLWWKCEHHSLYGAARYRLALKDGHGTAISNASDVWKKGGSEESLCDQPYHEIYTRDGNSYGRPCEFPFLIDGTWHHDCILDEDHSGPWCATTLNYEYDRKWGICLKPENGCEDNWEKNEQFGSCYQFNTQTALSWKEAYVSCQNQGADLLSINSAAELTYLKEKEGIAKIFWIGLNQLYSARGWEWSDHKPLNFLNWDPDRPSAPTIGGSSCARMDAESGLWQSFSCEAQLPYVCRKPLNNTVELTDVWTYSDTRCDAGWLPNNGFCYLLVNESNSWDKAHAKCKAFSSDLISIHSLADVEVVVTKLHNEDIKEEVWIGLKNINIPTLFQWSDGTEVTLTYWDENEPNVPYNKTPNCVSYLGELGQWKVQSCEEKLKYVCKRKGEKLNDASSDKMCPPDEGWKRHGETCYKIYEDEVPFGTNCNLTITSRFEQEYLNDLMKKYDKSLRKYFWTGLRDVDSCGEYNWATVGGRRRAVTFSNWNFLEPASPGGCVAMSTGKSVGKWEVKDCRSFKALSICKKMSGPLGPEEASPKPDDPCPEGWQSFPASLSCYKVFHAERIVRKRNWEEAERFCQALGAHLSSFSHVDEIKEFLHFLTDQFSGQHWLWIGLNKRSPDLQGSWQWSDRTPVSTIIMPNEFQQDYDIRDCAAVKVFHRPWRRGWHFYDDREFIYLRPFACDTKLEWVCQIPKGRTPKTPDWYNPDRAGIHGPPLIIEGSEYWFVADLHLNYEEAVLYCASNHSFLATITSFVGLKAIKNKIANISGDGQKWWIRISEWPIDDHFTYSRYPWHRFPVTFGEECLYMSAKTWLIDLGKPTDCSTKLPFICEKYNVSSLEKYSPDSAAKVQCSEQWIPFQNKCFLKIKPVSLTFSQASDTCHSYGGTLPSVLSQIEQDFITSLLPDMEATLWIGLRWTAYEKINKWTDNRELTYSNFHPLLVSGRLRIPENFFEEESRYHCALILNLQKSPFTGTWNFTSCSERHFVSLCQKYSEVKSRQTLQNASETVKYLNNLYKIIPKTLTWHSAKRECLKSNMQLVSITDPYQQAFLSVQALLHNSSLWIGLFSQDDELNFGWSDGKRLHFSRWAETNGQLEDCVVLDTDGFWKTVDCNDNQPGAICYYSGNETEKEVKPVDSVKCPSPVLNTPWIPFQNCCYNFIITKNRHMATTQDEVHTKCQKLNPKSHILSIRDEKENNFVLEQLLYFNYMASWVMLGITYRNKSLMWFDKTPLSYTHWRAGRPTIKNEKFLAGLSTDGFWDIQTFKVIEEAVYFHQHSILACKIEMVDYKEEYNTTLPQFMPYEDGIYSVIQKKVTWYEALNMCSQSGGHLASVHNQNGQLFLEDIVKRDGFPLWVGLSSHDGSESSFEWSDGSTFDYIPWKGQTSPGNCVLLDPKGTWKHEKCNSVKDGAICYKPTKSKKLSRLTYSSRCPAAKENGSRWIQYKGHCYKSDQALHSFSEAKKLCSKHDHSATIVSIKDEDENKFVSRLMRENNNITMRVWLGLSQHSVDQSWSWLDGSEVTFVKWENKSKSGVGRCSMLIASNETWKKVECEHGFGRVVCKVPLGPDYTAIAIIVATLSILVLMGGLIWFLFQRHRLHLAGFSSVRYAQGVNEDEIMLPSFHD
Procedure: as §1, §2, §3

Binder	binding result (Human CD40)	binding result (Human HER2)	binding result (Human DEC205)
B1	binds	binds	
B2		binds	binds

Reference: patent US20200048371A1 (Zymeworks, published 2020)
